# According to patent US20070244048A1 (published 2007):
# Where two headings read alike, the source gives them in different places. Non-standard residues stand in square brackets, D forms with d. No end group written: not given here. *: point of attachment. Succinimide(1-Et,3-yl) = CCN1C(=O)CC(*)C1=O
# T1: human NMUR1 (human, UniProt Q9HB89 1-426)
# T1 sequence (looked up): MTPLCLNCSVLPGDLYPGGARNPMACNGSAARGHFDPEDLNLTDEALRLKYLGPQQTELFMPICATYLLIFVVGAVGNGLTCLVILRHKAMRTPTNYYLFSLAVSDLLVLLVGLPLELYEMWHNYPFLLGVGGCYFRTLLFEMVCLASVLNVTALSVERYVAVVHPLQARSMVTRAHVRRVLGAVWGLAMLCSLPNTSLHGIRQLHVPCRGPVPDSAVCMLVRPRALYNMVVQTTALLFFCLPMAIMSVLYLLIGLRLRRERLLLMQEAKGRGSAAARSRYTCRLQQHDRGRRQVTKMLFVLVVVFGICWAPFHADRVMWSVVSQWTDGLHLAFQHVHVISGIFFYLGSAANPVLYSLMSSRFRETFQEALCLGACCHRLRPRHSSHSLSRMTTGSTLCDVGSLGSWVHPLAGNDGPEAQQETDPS
# T2: rat NMUR1-ATG (rat, UniProt Q9JJI5 1-425)
# T2 sequence (looked up): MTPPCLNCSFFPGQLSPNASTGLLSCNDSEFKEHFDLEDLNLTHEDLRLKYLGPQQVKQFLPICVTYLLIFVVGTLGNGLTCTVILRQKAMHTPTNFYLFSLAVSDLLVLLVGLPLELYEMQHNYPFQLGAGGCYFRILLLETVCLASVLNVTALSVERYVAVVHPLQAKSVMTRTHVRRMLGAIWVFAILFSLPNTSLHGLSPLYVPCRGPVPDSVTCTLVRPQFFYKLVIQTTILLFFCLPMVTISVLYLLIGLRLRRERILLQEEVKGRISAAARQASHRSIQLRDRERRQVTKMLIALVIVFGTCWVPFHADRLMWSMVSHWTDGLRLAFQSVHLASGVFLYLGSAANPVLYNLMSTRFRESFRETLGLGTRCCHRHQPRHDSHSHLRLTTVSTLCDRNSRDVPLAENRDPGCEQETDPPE
# T3: mouse NMUR1-ATG (mouse, UniProt O55040 1-428)
# T3 sequence (looked up): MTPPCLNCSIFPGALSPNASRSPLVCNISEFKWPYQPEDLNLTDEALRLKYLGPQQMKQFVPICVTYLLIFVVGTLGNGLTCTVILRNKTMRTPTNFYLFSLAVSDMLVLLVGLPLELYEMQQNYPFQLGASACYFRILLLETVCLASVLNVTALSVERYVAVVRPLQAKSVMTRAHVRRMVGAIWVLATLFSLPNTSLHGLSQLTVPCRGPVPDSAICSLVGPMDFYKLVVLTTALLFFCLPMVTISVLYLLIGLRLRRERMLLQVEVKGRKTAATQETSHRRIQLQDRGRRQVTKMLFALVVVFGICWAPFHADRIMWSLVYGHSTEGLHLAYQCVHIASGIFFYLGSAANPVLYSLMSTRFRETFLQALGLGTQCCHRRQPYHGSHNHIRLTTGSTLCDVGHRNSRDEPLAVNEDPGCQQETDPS
# T4: mouse NMUR1-CTG (mouse, UniProt O55040 1-428)
# T4 sequence (looked up): T3 sequence (looked up)
# T5: rat NMUR1-TTG (rat, UniProt Q9JJI5 1-425)
# T5 sequence (looked up): T2 sequence (looked up)
# B1: NMU8 (peptide)
# peptide: Ac-C(Succinimide(1-Et,3-yl))FRVDEEFQSPFASQSRGYFLFRPRN-NH2
# B2: NMU13 (peptide)
# peptide: Ac-C(Succinimide(1-Et,3-yl))FRVDEEFQSPFASQSRGYF[dA]WRPRN-NH2
# SMILES: CCN1C(=O)CC(SC[C@H](NC(C)=O)C(=O)N[C@@H](Cc2ccccc2)C(=O)N[C@@H](CCCNC(=N)N)C(=O)N[C@H](C(=O)N[C@@H](CC(=O)O)C(=O)N[C@@H](CCC(=O)O)C(=O)N[C@@H](CCC(=O)O)C(=O)N[C@@H](Cc2ccccc2)C(=O)N[C@@H](CCC(N)=O)C(=O)N[C@@H](CO)C(=O)N2CCC[C@H]2C(=O)N[C@@H](Cc2ccccc2)C(=O)N[C@@H](C)C(=O)N[C@@H](CO)C(=O)N[C@@H](CCC(N)=O)C(=O)N[C@@H](CO)C(=O)N[C@@H](CCCNC(=N)N)C(=O)NCC(=O)N[C@@H](Cc2ccc(O)cc2)C(=O)N[C@@H](Cc2ccccc2)C(=O)N[C@H](C)C(=O)N[C@@H](Cc2c[nH]c3ccccc23)C(=O)N[C@@H](CCCNC(=N)N)C(=O)N2CCC[C@H]2C(=O)N[C@@H](CCCNC(=N)N)C(=O)N[C@@H](CC(N)=O)C(N)=O)C(C)C)C1=O
# notes: also called NMUR1 selective peptide NMU13
# B3: neuromedin U receptor agonist E (peptide)
# peptide: Ac-F[dL]WRPRN-NH2
# SMILES: CC(=O)N[C@@H](Cc1ccccc1)C(=O)N[C@H](CC(C)C)C(=O)N[C@@H](Cc1c[nH]c2ccccc12)C(=O)N[C@@H](CCCNC(=N)N)C(=O)N1CCC[C@H]1C(=O)N[C@@H](CCCNC(=N)N)C(=O)N[C@@H](CC(N)=O)C(N)=O
# B4: neuromedin U receptor agonist G (peptide)
# peptide: FRVDEEFQSPFASQSRGYFWRPRN-NH2
# Columns and labels:
# [1] = target: T1, human NMUR1; assay: cell-based or functional assay
# [2] = target: T6, human NMUR2 (human, UniProt Q9GZQ4 1-415); assay: cell-based or functional assay
# [3] = target: T1, human NMUR1; assay: cell-based or functional assay; remark: listed apart in the source
# [4] = target: T6, human NMUR2; assay: cell-based or functional assay; remark: listed apart in the source
# [5] = target: T1, human NMUR1; assay: 125I-hNMU-25 displacement, HEK cell membranes
# Protocol: (§1) Confluent cell monolayers expressing NMU receptors (the HEK cells described above) were harvested with phosphate buffered saline, collected by centrifugation, and resuspended in membrane buffer (50 mM TrisCl pH 7.4, 5 mM MgCl₂, 1× Protease Inhibitor Cocktail, 10 μM phosphoramidon). After the cell pellet was homogenized, the solution was centrifuged at 18,000 rpm for 20 minutes at 4° C. The pellet was resuspended in membrane buffer to yield a final concentration of 0.5-5 μg/μL of membrane and stored at −80° C.
# (§2) Experiments were performed in assay buffer (25 mM TrisCl, pH 7.4, 10 mM MgCl₂, 2mM EDTA, 1× Protease Inhibitor Cocktail, 100 μg/mL Bacitricin, 10 μM phosphoramidon) in 200 μL volumes in a 96-well format using 2-5 μg of membrane and […] ¹²⁵I-hNMU-25 (about 12,000 cpm/well). For non-specific binding, 1 μM hNMU-25 was added. About 5 μL of peptides were added to measure antagonist activity, and the entire reaction was incubated at room temperature with shaking for 80 minutes. The reaction was terminated by rapid filtration through 0.3% poly-ethylenimine presoaked Millipore 96-well filter plates and washed with ice-cold buffer (5 mM TrisCl pH 7.4, 10 mM MgCl₂, 2.5 mM EDTA, 0.04% Triton X-100). Plates were air-dried overnight at room temperature and recovered radioactivity was determined by standard scintillation counting. IC₅₀ values were determined using GraphPad Prism software.
# (§3) Concentration-response curves and radioligand-binding data were fitted using Prism (GraphPad Software). Results are summarized below in Tables 8 and 9.
# [6] = target: T6, human NMUR2; assay: 125I-hNMU-25 displacement, HEK cell membranes
# Protocol: as §1, §2, §3
# [7] = target: T2, rat NMUR1-ATG; assay: cell-based or functional assay
# [8] = target: T7, rat NMUR2 (rat, UniProt Q9ESQ4 1-395); assay: cell-based or functional assay
# [9] = target: T3, mouse NMUR1-ATG; assay: cell-based or functional assay
# [10] = target: T8, mouse NMUR2 (mouse, UniProt Q8BZ39 1-395); assay: cell-based or functional assay
# [11] = target: T4, mouse NMUR1-CTG; assay: cell-based or functional assay
# [12] = target: T2, rat NMUR1-ATG; assay: cell-based or functional assay; remark: listed apart in the source
# [13] = target: T7, rat NMUR2; assay: cell-based or functional assay; remark: listed apart in the source
# [14] = target: T3, mouse NMUR1-ATG; assay: cell-based or functional assay; remark: listed apart in the source
# [15] = target: T1, human NMUR1; assay: cell-based or functional assay; remark: listed apart in the source
# [16] = target: T8, mouse NMUR2; assay: cell-based or functional assay; remark: listed apart in the source
# [17] = target: T4, mouse NMUR1-CTG; assay: cell-based or functional assay; remark: listed apart in the source
# [18] = target: T5, rat NMUR1-TTG; assay: cell-based or functional assay
# [19] = target: T6, human NMUR2; assay: cell-based or functional assay; remark: listed apart in the source
# [20] = target: T5, rat NMUR1-TTG; assay: cell-based or functional assay; remark: listed apart in the source
# [21] = target: T2, rat NMUR1-ATG; assay: 125I-hNMU-25 displacement, cell membranes
# [22] = target: T7, rat NMUR2; assay: 125I-hNMU-25 displacement, cell membranes
# [23] = target: T3, mouse NMUR1-ATG; assay: 125I-hNMU-25 displacement, cell membranes
# [24] = target: T1, human NMUR1; assay: 125I-hNMU-25 displacement, cell membranes
# [25] = target: T8, mouse NMUR2; assay: 125I-hNMU-25 displacement, cell membranes
# [26] = target: T4, mouse NMUR1-CTG; assay: 125I-hNMU-25 displacement, cell membranes
# [27] = target: T5, rat NMUR1-TTG; assay: 125I-hNMU-25 displacement, cell membranes
# [28] = target: T6, human NMUR2; assay: 125I-hNMU-25 displacement, cell membranes
# [29] = target: T1, human NMUR1; assay: cell-based or functional assay; remark: listed apart in the source
# [30] = target: T6, human NMUR2; assay: cell-based or functional assay; remark: listed apart in the source
# T7 sequence (Q9ESQ4 whole entry): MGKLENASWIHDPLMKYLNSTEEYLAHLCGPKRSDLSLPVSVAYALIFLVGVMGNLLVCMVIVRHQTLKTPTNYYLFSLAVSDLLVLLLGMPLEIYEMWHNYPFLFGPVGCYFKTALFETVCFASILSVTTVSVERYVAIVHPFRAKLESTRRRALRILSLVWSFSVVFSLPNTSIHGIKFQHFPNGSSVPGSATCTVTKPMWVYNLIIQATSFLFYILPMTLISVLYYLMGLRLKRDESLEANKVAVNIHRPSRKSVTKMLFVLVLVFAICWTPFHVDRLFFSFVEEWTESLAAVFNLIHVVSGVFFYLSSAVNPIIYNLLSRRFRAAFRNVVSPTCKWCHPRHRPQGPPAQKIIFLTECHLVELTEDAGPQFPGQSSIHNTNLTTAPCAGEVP
# T8 sequence (Q8BZ39 whole entry): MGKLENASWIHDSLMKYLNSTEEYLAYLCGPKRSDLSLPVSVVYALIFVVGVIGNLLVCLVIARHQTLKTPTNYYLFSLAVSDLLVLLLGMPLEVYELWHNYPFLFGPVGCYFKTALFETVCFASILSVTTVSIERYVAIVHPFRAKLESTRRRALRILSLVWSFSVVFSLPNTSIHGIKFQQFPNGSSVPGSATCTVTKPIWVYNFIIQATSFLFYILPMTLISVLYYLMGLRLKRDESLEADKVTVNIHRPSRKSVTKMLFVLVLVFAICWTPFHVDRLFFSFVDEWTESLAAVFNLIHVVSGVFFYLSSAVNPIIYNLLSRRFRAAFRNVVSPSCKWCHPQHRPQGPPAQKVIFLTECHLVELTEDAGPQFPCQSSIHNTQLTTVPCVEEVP
# T6 sequence (Q9GZQ4 whole entry): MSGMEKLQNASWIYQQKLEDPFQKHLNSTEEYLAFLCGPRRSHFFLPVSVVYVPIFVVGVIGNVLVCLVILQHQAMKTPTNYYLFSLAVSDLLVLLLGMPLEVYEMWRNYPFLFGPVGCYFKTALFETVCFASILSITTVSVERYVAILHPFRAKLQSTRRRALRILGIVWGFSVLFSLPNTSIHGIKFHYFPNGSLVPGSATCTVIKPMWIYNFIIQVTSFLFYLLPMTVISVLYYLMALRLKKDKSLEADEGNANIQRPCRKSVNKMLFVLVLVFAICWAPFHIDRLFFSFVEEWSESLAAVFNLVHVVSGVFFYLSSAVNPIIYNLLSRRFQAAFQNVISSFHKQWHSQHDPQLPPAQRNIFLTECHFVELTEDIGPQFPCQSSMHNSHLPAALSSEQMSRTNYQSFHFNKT
binder,measurement,setting,value
B1,% Activity (FLIPR),[1],99.1%
same,EC50 (FLIPR),[1],10.7 nM
same,% Activity (FLIPR),[2],100%
same,EC50 (FLIPR),[2],5.2 nM
same,% activity,[3],100%
same,EC50,[3],1.36 nM
same,% activity,[4],104%
same,EC50,[4],2.9 nM
same,% activity (binding),[5],100%
same,IC50,[5],2.4 nM
same,% activity (binding),[6],100%
same,IC50,[6],0.3 nM
same,% Activity (FLIPR),[7],97.2%
same,EC50 (FLIPR),[7],36.7 nM
same,% Activity (FLIPR),[8],94.7%
same,EC50 (FLIPR),[8],45.1 nM
same,% Activity (FLIPR),[9],100%
same,EC50 (FLIPR),[9],6.4 nM
same,% Activity (FLIPR),[10],100%
same,EC50 (FLIPR),[10],1.8 nM
same,% Activity (FLIPR),[11],100%
same,EC50 (FLIPR),[11],15.5 nM
B2,% Activity (FLIPR),[1],100%
same,EC50 (FLIPR),[1],4.8 nM
same,% Activity (FLIPR),[2],0%
same,EC50 (FLIPR),[2],> 1000 nM
same,% activity,[12],92%
same,"IC50 (nM), functional",[12],15.8 nM
same,% activity,[13],24%
same,"IC50 (nM), functional",[13],> 1000 nM
same,% activity,[14],96%
same,"IC50 (nM), functional",[14],7.8 nM
same,% activity,[15],91%
same,"IC50 (nM), functional",[15],1.7 nM
same,% activity,[16],27%
same,"IC50 (nM), functional",[16],> 1000 nM
same,% activity,[17],88%
same,"IC50 (nM), functional",[17],14 nM
same,% activity,[18],94%
same,"IC50 (nM), functional",[18],107 nM
same,% activity,[19],0%
same,"IC50 (nM), functional",[19],> 1000 nM
same,% Activity (FLIPR),[7],100%
same,EC50 (FLIPR),[7],9.5 nM
same,% Activity (FLIPR),[8],0%
same,EC50 (FLIPR),[8],> 1000 nM
same,% Activity (FLIPR),[20],94.6%
same,EC50 (FLIPR),[20],115 nM
same,% Activity (FLIPR),[9],98.6%
same,EC50 (FLIPR),[9],35.8 nM
same,% Activity (FLIPR),[10],0%
same,EC50 (FLIPR),[10],> 1000 nM
same,% Activity (FLIPR),[11],73.6%
same,EC50 (FLIPR),[11],142 nM
same,% inhibition of NMU-25 binding,[21],100%
same,IC50,[21],1.6 nM
same,% inhibition of NMU-25 binding,[22],0%
same,% inhibition of NMU-25 binding,[23],100%
same,IC50,[23],5.4 nM
same,% inhibition of NMU-25 binding,[24],100%
same,IC50,[24],4.3 nM
same,% inhibition of NMU-25 binding,[25],30%
same,% inhibition of NMU-25 binding,[26],100%
same,IC50,[26],3.5 nM
same,% inhibition of NMU-25 binding,[27],100%
same,IC50,[27],3.24 nM
same,% inhibition of NMU-25 binding,[28],48%
B3,% activity,[29],100%
same,"IC50 (nM), functional",[29],1.9 nM
same,% activity,[30],1.8%
same,"IC50 (nM), functional",[30],> 1000 nM
same,% activity (binding),[5],93%
same,IC50,[5],75 nM
same,% activity (binding),[6],5%
B4,% activity,[29],91%
same,"IC50 (nM), functional",[29],8.4 nM
same,% activity,[30],14%
same,"IC50 (nM), functional",[30],> 1000 nM
same,% activity (binding),[5],97%
same,IC50,[5],2.1 nM
same,% activity (binding),[6],33%
same,IC50,[6],31 nM
